The values below come from PMC10847778.

In assay [1] the target is oleate hydratase (OhyA), recombinant full-length, His-tagged (Staphylococcus aureus). In words: cryo-EM single-particle images (no structure solved); grids of OhyA prepared in the absence of detergent.
Assay [2] has the same target. Kind of assay: mass photometry; OneMP mass photometer; final concentration 100 nM protein; dilute, equilibrium conditions.
Assay [3] shares this target. In words: SEC-MALS; Superose 6 Increase 10/300 GL; 20 mM Tris, 200 mM NaCl, pH 7.6; 25 °C; protein at 2 mg/ml, 100 μl injected. A general note: SEC sorts molecules by how far they enter the pores of the column.
Assay [4] concerns the target OhyA lacking helices α19 and α20 (OhyA(ΔHTH)), His-tagged (Staphylococcus aureus). In words: mass photometry; OneMP mass photometer; final concentration 100 nM protein; dilute, equilibrium conditions.
Assay [5] has the same target. In words: SEC-MALS; Superose 6 Increase 10/300 GL; 20 mM Tris, 200 mM NaCl, pH 7.6; 25 °C; protein at 2 mg/ml, 100 μl injected.

For orientation: stoichiometry N means the number of molecules, sites or subunits per partner or assembly. “oleate hydratase (OhyA), recombinant full-length, His-tagged (enzyme)”: the values for the stoichiometry N in assay [1], in assay [2] and in assay [3] were 4, 2 and 2, respectively. Further, the results for the percent dimer in assay [2] and in assay [3] were 86% and 84.6%, respectively.

With “OhyA lacking helices α19 and α20 (OhyA(ΔHTH)), His-tagged (domain or fragment)”, in assay [4], the percent dimer was found to be 20% and the percent monomer was 75%. In assay [5], this substance registered a percent dimer of 89.8% and a stoichiometry N of 2.
